{"source": "patent US20210340273A1", "about": "(INHLBRX, published 2021)", "key": {"[1]": {"target": "T1, human 5T4 (trophoblast glycoprotein), endogenous on the cell surface (human, UniProt Q13641 32-420)", "T1 construct": "also called TPBG; 5T4 oncofetal antigen", "T1 sequence": "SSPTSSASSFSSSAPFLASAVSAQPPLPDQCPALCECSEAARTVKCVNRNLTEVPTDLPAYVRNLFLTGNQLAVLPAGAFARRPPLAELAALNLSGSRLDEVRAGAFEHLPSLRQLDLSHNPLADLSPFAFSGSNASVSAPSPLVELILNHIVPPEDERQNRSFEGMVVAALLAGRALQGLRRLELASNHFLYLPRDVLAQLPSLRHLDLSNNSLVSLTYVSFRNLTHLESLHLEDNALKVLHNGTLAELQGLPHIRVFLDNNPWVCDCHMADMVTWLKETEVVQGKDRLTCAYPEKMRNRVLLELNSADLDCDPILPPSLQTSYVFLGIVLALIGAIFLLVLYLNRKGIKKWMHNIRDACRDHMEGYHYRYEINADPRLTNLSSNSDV", "test": "printed as Affinity 5T4; apparent affinity from flow cytometry titration on Ovcar-5 cells", "method": "Binding of exemplary 5T4-targeting constrained CD3 engaging constructs set forth in Table E3 to CD3 on the surface of primary T cells and 5T4 expressing cells (Ovcar-5) was assessed by flow cytometry. The T cells were primary T-cells that were negatively enriched from PBMCs isolated from healthy human donor leukopaks. Bound construct was detected with fluorophore-conjugated secondary antibodies specific for the human Fc (anti-human IgG APC secondary antibody) and binding was measured by flow cytometry. Cells incubated with secondary antibody only served as negative controls. The results, from flow cytometry histograms displaying normalized cell counts versus fluorescence at 200 nM of each construct, are shown in FIG. 4A (cx3253), FIG. 4B (cx3264), FIG. 4C (cx3497), FIG. 4D (cx3499), FIG. 4E (cx3547), FIG. 4F (cx3546), FIG. 4G (cx4224), FIG. 4H (cx4913), FIG. 4I (cx3265), […] (cx4912), FIG. 4K (cx3262), FIG. 4L (cx4911), and FIG. 4M (cx4910). […] However, as shown in the top right and bottom panels of each of the figures, the same constructs were not able to bind to T cells in isolation.\nTable E4 summarizes the affinity of exemplary molecules for 5T4 or CD3, as determined from flow cytometry, in these studies."}, "[2]": {"target": "T2, CD3 on the surface of primary human T cells or Jurkat reporter cells (human, UniProt P07766 23-207)", "T2 construct": "whole, on cells; also called CD3 epsilon", "T2 sequence (P07766 23-207)": "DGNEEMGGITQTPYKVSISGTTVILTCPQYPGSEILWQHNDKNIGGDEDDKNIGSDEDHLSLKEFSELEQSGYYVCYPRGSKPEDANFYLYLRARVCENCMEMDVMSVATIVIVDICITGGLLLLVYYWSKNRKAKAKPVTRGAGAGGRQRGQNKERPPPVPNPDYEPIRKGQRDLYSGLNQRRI", "test": "printed as Affinity CD3; flow cytometry titration on primary human T cells"}, "[3]": {"target": "T1, human 5T4 (trophoblast glycoprotein), …", "test": "flow cytometry on 5T4-positive OVCAR5 (Ovcar-5) cells, anti-human IgG secondary; titration", "method": "FIGS. 4A-4M depict the binding of various 5T4-target constrained CD3 engaging constructs to the 5T4 positive Ovcar-5 cell line (top left) and the lack of binding to primary human T-cells (top right). […] Binding was assessed by flow cytometry using an anti-human IgG APC secondary antibody. The histograms display the normalized cell counts vs fluorescence at 200 nM of each construct.\nBinding of exemplary 5T4-targeting constrained CD3 engaging constructs set forth in Table E3 to CD3 on the surface of primary T cells and 5T4 expressing cells (Ovcar-5) was assessed by flow cytometry. The T cells were primary T-cells that were negatively enriched from PBMCs isolated from healthy human donor leukopaks. Bound construct was detected with fluorophore-conjugated secondary antibodies specific for the human Fc (anti-human IgG APC secondary antibody) and binding was measured by flow cytometry. Cells incubated with secondary antibody only served as negative controls. […] The results, from flow cytometry histograms displaying normalized cell counts versus fluorescence at 200 nM of each construct, are shown in FIG. 4A (cx3253), FIG. 4B (cx3264), FIG. 4C (cx3497), FIG. 4D (cx3499), FIG. 4E (cx3547), FIG. 4F (cx3546), FIG. 4G (cx4224), FIG. 4H (cx4913), FIG. 4I (cx3265), […] (cx4912), FIG. 4K (cx3262), FIG. 4L (cx4911), and FIG. 4M (cx4910). […]"}, "[4]": {"target": "T3, murine 5T4 construct (Mu), full 5T4 coding region fused to an intracellular Citrine tag, on transfected CHO … (mouse, UniProt Q9Z0L0 32-426)", "T3 construct": "also called fully murine construct; mouse 5T4 antigen; not shown: intracellular Citrine tag", "T3 sequence": "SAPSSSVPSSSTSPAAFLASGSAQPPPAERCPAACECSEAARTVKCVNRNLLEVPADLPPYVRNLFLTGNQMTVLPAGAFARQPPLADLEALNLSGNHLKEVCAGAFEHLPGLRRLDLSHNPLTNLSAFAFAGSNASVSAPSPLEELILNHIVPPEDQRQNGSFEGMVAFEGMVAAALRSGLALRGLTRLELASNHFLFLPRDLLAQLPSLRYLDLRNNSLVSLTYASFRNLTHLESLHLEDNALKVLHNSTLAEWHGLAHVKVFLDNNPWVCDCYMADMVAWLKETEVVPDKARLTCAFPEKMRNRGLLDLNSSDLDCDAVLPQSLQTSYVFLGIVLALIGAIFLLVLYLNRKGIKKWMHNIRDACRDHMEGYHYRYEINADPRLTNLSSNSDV", "test": "flow cytometry on CHO cells transiently transfected with the 5T4 construct", "description": "(§1) In order to determine the location of the epitope recognized by these sdAbs, various mouse:human chimeric 5T4 constructs were generated, wherein various portions of the murine extracellular domain of 5T4 were replaced with that of human 5T4. The constructs were generated by grafting a nucleic acid sequence encoding the specific region of human 5T4 into the cognate region of mouse 5T4 in a mammalian expression plasmid encoding the full 5T4 coding region (extracellular domain, transmembrane domain, intracellular domain) fused to an intracellular Citrine tag. […] CHO cells were transiently transfected with these constructs to enable cell surface expression, and binding was monitored by flow cytometry."}, "[5]": {"target": "T4, human 5T4 construct (Hu), full 5T4 coding region fused to an intracellular Citrine tag, on transfected CHO … (human, UniProt Q13641 32-420)", "T4 construct": "also called fully human construct; not shown: intracellular Citrine tag", "T4 sequence": "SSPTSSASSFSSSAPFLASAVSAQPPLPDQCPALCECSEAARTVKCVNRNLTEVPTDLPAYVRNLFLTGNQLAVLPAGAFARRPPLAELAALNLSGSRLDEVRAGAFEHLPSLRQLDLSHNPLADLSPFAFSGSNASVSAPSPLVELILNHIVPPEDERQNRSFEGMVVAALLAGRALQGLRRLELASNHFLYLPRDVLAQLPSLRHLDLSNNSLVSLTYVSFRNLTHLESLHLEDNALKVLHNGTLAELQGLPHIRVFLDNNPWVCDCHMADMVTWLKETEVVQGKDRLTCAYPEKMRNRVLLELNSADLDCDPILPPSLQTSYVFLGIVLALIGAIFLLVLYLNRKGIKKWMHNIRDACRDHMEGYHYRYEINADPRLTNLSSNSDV", "test": "flow cytometry on CHO cells transiently transfected with the 5T4 construct", "description": "as §1"}, "hmc5T4.2": {"target": "T5, hmc5T4.2", "T5 construct": "the rest is mouse 5T4; also called chimeric hmc5T4.2; not shown: intracellular Citrine tag fused to the full coding region", "T5 chain": "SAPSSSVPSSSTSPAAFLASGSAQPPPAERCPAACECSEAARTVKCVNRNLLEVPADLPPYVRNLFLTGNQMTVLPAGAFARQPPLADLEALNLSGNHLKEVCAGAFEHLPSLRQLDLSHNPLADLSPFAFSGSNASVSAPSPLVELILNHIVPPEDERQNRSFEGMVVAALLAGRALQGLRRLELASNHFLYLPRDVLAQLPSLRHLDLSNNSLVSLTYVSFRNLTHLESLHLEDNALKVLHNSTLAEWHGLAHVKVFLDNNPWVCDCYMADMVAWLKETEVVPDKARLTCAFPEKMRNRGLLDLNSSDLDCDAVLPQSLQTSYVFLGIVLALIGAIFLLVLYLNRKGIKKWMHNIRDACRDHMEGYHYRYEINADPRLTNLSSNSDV", "test": "flow cytometry on CHO cells transiently transfected with the 5T4 construct", "description": "as §1"}}}
{"binder": "cx3264, 5T4-targeted constrained CD3 engaging construct with a 41BB binding domain (bispecific antibody) chain 1: QVQLQESGGGLVQAGGSLRLSCAASRRPFSSKTMAWFRQTPGKEREFVAAVRWIGGATRYTDSVKGRFSISKDNAINTVYLQTNSLKSEDTAVYYCAAGQTWGTKFTDYSDWGQGTLVTVKPDKTHTCPPCPAPELLGGPSVFLFPPKPKDTLMISRTPEVTCVVVDVSHEDPEVKFNWYVDGVEVHNAKTKPREEQYNSTYRVVSVLTVLHQDWLNGKEYKCKVSNKALPAPIEKTISKAKGQPREPQVYTLPPCRDELTKNQVSLWCLVKGFYPSDIAVEWESNGQPENNYKTTPPVLDSDGSFFLYSKLTVDKSRWQQGNVFSCSVMHEALHNHYTQKSLSLSPTGGSGGGGIEPDIGGSGGSEVQLVESGGGLVQPGGSLRLSCAASGFTFNTYAMNWVRQAPGKCLEWVARIRSKYNNYATYYADSVKGRFTISRDDAKNTLYLQMSSLRAEDTAVYYCVRHGNFGNSYVSWFAYWGQGTLVTVKPQVQLQESGGGLVQAGGSLRLSCAASRRPFSSKTMAWFRQTPGKEREFVAAVRWIGGATRYTDSVKGRFSISKDNAINTVYLQTNSLKSEDTAVYYCAAGQTWGTKFTDYSDWGQGTLVTVKP chain 2: not shown", "values": [{"measurement": "Kd", "setting": "[1]", "value": 0.145, "unit": "nM"}, {"measurement": "Kd", "setting": "[2]", "value": "> 200", "unit": "nM"}]}
{"binder": "cx3499, 5T4-targeted constrained CD3 engaging construct with a 41BB binding domain (bispecific antibody, Heterodimeric multispecific construct (5T4 x CD3 x 41BB)) chain 1: QVQLVQSGGGLVQAGGSLRLSCAASRRPFSSKTMAWFRQTPGKEREFVAAVRWIGGATRYTDSVKGRFSISKDNAINTVYLQMNSLKSEDTAVYYCAAGQAWGTKFTDYSDWGQGTQVTVKPDKTHTCPPCPAPELLGGPSVFLFPPKPKDTLMISRTPEVTCVVVDVSHEDPEVKFNWYVDGVEVHNAKTKPREEQYNSTYRVVSVLTVLHQDWLNGKEYKCKVSNKALPAPIEKTISKAKGQPREPQVYTLPPCRDELTKNQVSLWCLVKGFYPSDIAVEWESNGQPENNYKTTPPVLDSDGSFFLYSKLTVDKSRWQQGNVFSCSVMHEALHNHYTQKSLSLSPTGGSGGGGIEPDIGGSGGSEVQLVESGGGLVQPGGSLRLSCAASGFTFNTYAMNWVRQAPGKCLEWVARIRSKYNNYATYYADSVKGRFTISRDDAKNTLYLQMSSLRAEDTAVYYCVRHGNFGNSYVSWFAYWGQGTLVTVKPQVQLVQSGGGLVQAGDSLTLSCAVSERPFGTYAMGWFRQAPGRERDLVAAVSRNGGASQYGDSVKGRFSISRDNIKNTMYLQMNSLKPEDTAVYYCAARSAAYSRSSEVYTGKDEYYYWGQGTQVTVKP chain 2: not shown", "values": [{"measurement": "Kd", "setting": "[1]", "value": 0.653, "unit": "nM"}, {"measurement": "EC50 (read off the curve)", "setting": "[3]", "value": "~0.7", "unit": "nM"}]}
{"binder": "hz16G10v11 sdAb-Fc (Fc fusion, Humanized variant of 16G10, linked to a human Fc; also called hz16G10v11-Fc; cx7885; not shown: human Fc) EVQLVESGGGEVQPGGSLRLSCAASGRPFSSYAMGWFRQAPGKERETVAAVSRNAGSSYYAESVKGRFTISRDNAKNTVYLQMSSLRAEDTAVYYCAARSAAYSRSSETYTEKHDYTYWGQGTLVTVKP", "values": [{"measurement": "binding result", "setting": "[4]", "value": "no binding (tested: about 500 nM)"}, {"measurement": "EC50 (read off the curve)", "setting": "[5]", "value": "~3", "unit": "nM"}, {"measurement": "EC50 (read off the curve)", "setting": "hmc5T4.2", "value": "~2", "unit": "nM"}]}
